Measured values reported in US20140377324A1, “Pharmaceutical Composition Comprising miRNA-100 And Its Use In The Modulation of Blood Vessel Growth and Endothelial Inflammation” (Universitatsklinikum Freiburg, priority 2009, published 2014).

How the values were obtained:
[1] = test system: cultured cancer cells (oral squamous cell carcinoma); conditions: Henson et al. 2009; cited from earlier work
[2] = test system: miR-100; assay: miR-100 level by quantitative stem-loop RT-PCR after pre-miR/anti-miR transfection; type: cell-based, human; conditions: 24 h following transfection; vs irrelevant-sequence controls; FIG. 2
Excerpt: To verify the expression of miR-100 in pure cell populations of the vascular wall, stem-loop RT-PCR was used for total RNA-isolates from cultured human endothelial cells (HUVECs) and human aortic vascular smooth muscle cells.
MicoRNA expression was validated by quantitative stem-loop PCR technology (TaqMan MicroRNA Assays, Applied Biosystems, Foster City, Calif.). The use of target-specific reverse transcription primers and TaqMan hybridization probes allows the specific detection of mature microRNAs. MicroRNA expression was normalized to the expression of the small RNAs rnu19 and rnu48.
miR-100 was strongly expressed in both cell types. To investigate a potential role of miR-100 for angiogenesis, miR-100 was overexpressed and silenced in these cell types by transfecting specific miR-100 precursors (pre-miRs) or antisense-molecules (anti-miRs), respectively. […] Pre- and anti-miRs with an irrelevant nucleotide sequence served as negative controls. There was no significant difference in cellular viability following transfection with the different compounds.
For transfection with pre-miR microRNA precursor molecules or anti-miRmiRNA inhibitors (all Ambion), cells were cultured to 70% confluence and transfected with 8nM pre-miR-100 or anti-miR-100 oligonucleotides using Lipofectamin RNAiMax (invitrogen) according to the manufacturers instructions. […]

[3] = test system: E-Selectin; assay: E-Selectin protein expression in endothelial cells (Western blot); type: cell-based, human
Method: (§1) MiRNA-100 was overexpressed in human endothelial cells followed by protein isolation. Using Western blots, the protein expression of VCAM-1, ICAM-1 and E-Selectin was determined. FIGS. 14A and B show the ratio between volume intensity of the protein-samples and the loading control (β-tubulin) for [A] the baseline expression and [B] the expression after 24 h TNF-α stimulation.

[4] = test system: endothelial cells; assay: BrdU-Incorporation (proliferation), endothelial cells; type: cell-based, human; conditions: FIG. 3
Excerpt: (§2) To assess whether the observed differences were secondary to effects on cellular viability, endothelial cell apoptosis and proliferation following miR-100 modulation was checked. […] DNA-synthesis rate was further analyzed by measuring BrdU-Incorporation, which correlates well with cellular proliferation.

[5] = test system: VCAM-1; assay: VCAM-1 protein expression in endothelial cells (Western blot); type: cell-based, human
Method: as §1

[6] = test system: VCAM-1; assay: VCAM-1 mRNA expression in endothelial cells (Taqman PCR); type: cell-based, human; conditions: vs scrambled premiR control; FIG. 13
Method: (§3) Human endothelial cells were transfected with premiR-100 and scrambled premiR control oligonucleotides. After RNA isolation, the relative expression rate of the mRNA of different adhesion molecules was measured using the Stem loop Taqman PCR (P value≦0.005).

[7] = test system: HUVECs / human PBMCs; assay: Leukocyte-HUVEC interaction under flow conditions (flow chamber); type: cell-based; conditions: TNF-alpha 30 ng/ml for 24 h, flow 1 dyn/cm^2; FIG. 15
Method: HUVECs were grown to confluence, transfected with either anti-miR-100 or pre-Mir-100 oligonucelotides or scrambled controls and stimulated with TNF-alpha 30 ng/ml for 24 h. Human PBMCs (HPBMCs) were obtained from buffy coats of healthy donors by Ficoll-Hypaque density gradient centrifugation. The flow chamber was assembled and placed onto an inverted microscope stage, and freshly isolated HPBMCs (1×10^6/ml) were perfused across the endothelial monolayers. In all experiments, leukocyte interactions were determined over 105 min at 1 dyn/cm^2. Cells interacting on the surface of the endothelium were visualized and recorded using phase-contrast microscopy.
To test if this change in expression results in a functional difference in leukocyte rolling and adhesion to the endothelial surface, the attachment of isolated peripheral blood mononuclear cells (PBMC) to transfected endothelial cells was investigated under physiologic flow conditions in a flow chamber apparatus.
A physiological venous blood flow (1 dynes/cm^2) was induced by a flow chamber apparatus and the number of rolling or adherent peripheral blood mononuclear cells (PBMCs) was counted.

[8] = test system: ICAM-1; assay: ICAM-1 protein expression in endothelial cells (Western blot); type: cell-based, human
Method: as §1

[9] = test system: endothelial cells; assay: planar matrigel assay, endothelial network formation; type: cell-based, human
[10] = test system: ICAM-1; assay: ICAM-1 mRNA expression in endothelial cells (Taqman PCR); type: cell-based, human; conditions: vs scrambled premiR control; FIG. 13
Method: as §3

[11] = test system: HEK293 cells; assay: HEK cell proliferation, rescue-experiment with mTOR plasmids; type: cell-based, human; conditions: 8nM oligonucleotide; FIG. 7
Method: To investigate if the repression of mTOR was responsible for the observed attenuation of cellular proliferation by miR-100, a rescue-experiment was performed by transfecting mTOR-coding plasmids in combination with pre-miR-100.
(§4) For transfection with pre-miR microRNA precursor molecules or anti-miRmiRNA inhibitors (all Ambion), cells were cultured to 70% confluence and transfected with 8nM pre-miR-100 or anti-miR-100 oligonucleotides using Lipofectamin RNAiMax (invitrogen) according to the manufacturers instructions. For transfection of HEK293 cells with mTOR plasmids, 2 μg DNA per 3×10E5 cells was transfected with Fugene 6 transfection reagent (Roche). For double transfection of plasmids with miRNA-precursors and inhibitors, pre- and anti-miRs were added to the plasmid/Fugene transfection mix in the same final concentrations as stated above. mTOR (Acc. NM004958) full length (SKU SC124066) and ORF-constructs (SKU RC220457) were obtained from the Origene collection (Origene, Rockville, Md.).
Due to the large plasmid size of mTOR, it was not possible to achieve a sufficient transfection rate in endothelial cells without procedure-related toxic effects and therefore the easily transfected HEK-cells were chosen as a culture model, where the miR-100 effects on proliferation seen in endothelial cells could be reproduced (FIG. 7).

[12] = test system: mTOR (FRAP1-gene); assay: microarray based gene expression analysis of endothelial cells following miR-100 overexpression (mTOR); type: cell-based, human
Excerpt: Using a combination of bioinformatic prediction algorithms and microarray based gene expression analysis of endothelial cells following miR-100 overexpression, it was searched for potential target genes of miR-100 that could be responsible for the observed effects.

[13] = test system: mTOR; assay: mTOR expression in endothelial cells after miR-100 modulation; type: cell-based, human; conditions: FIG. 5
Method: The binding site of miR-100 in the 3′-UTR of mTOR is shown in (FIG. 6.) In FIG. 6 the sequence designated hsa-miR-100 corresponds to SEQ ID NO:1 and the sequence having the designation mTOR 3′UTR corresponds to SEQ ID NO:7.
as §4

[14] = test system: VCAM-1; assay: Agilent microarray after miR-100 overexpression in endothelial cells, VCAM-1; type: cell-based, human; conditions: 48 hours after transfection vs control oligonucleotide, FIG. 12
Method: (§5) After discovering the high baseline expression of miR-100 in endothelial cells and its downregulation in response to vascular injury and ischemia, the function of this microRNA in endothelial cells (EC) was investigated. Therefore, miR-100 was overexpressed in EC by transfecting a synthetic miR-100 precursor molecule (pre-mir) and analysed global mRNA gene expression changes compared to transfection with a control oligonucleotide at 48 hours after transfection on a human Agilent 4×44 k microarray platform.
(§6) Microarray results were analysed both on individual gene level as well as by biological pathway analysis using the “Panther Pathways Analysis” Tool that tests changes in gene expression for enrichment of specific biological pathways or cellular functions.
(§7) Endothelial cells were transfected with miR-100 precursor oligonucleotides. Total RNA was isolated after 48 h for microarray analysis of global gene expression.

[15] = test system: E-Selectin; assay: E-Selectin mRNA expression in endothelial cells (Taqman PCR); type: cell-based, human; conditions: vs scrambled premiR control; FIG. 13
Method: as §3

[16] = test system: endothelial cells; assay: flow cytometric quantification of Annexin V-staining (apoptosis); type: cell-based, human; conditions: compared to irrelevant control sequence, FIG. 3
Excerpt: as §2

[17] = test system: vascular smooth muscle cells; assay: BrdU-Incorporation (proliferation), smooth muscle cells; type: cell-based, human; conditions: FIG. 4
[18] = test system: endothelial cells; assay: three-dimensional spheroid culture assay, endothelial sprouting; type: cell-based, human
[19] = test system: E-Selectin (SELE); assay: Agilent microarray after miR-100 overexpression in endothelial cells, E-Selectin; type: cell-based, human; conditions: 48 hours after transfection vs control oligonucleotide, FIG. 12
Method: as §5, §6, §7

[20] = after 24 h TNF-α stimulation, FIG. 14B

B1: pre-miR-100: synthetic miR-100 precursor molecule, SEQ ID No. 8, used to overexpress miR-100; processed to mature miRNA-100 (SEQ ID No: 9) (nucleic acid)
chain: CCUGUUGCCACAAACCCGUAGAUCCGAACUUGUGGUAUUAGUCCGCACAAGCUUGUAUCUAUAGGUAUGUGUCUGUUAGG
modifications: listed as RNA, chemistry not given here
**Q.** With B1 as the molecule, how does the cell proliferation [1] read?
**A.** significantly reduced cell proliferation

**Q.** And the “detectable miR-100 (relative miR-100 expression)” value [2]?
**A.** strong increase in detectable miR-100

**Q.** And the “E-Selectin protein, upregulation after TNF-α stimulation” value [3, 20]?
**A.** blunts the upregulation in response to inflammatory stimuli

**Q.** What about the “E-Selectin protein, baseline expression” value ([3]; ratio to β-tubulin) of the same molecule?
**A.** decreases baseline expression

**Q.** And the “endothelial cell proliferation (DNA-synthesis rate)” value [4]?
**A.** significant attenuation of endothelial cell proliferation

**Q.** What about the “VCAM-1 protein, upregulation after TNF-α stimulation” value [5, 20] of the same molecule?
**A.** blunts the upregulation in response to inflammatory stimuli

**Q.** What about the “VCAM-1 protein, baseline expression” value ([5]; ratio to β-tubulin, FIG. 14A) of the same molecule?
**A.** decreases baseline expression

**Q.** And the “VCAM-1 mRNA relative expression” value [6]?
**A.** decrease

**Q.** What about the “leukocyte (PBMC) adhesion to transfected endothelial cells” value [7] of the same molecule?
**A.** significantly attenuates leukocyte adhesion

**Q.** And the “ICAM-1 protein, upregulation after TNF-α stimulation” value [8, 20]?
**A.** blunts the upregulation in response to inflammatory stimuli

**Q.** And the “ICAM-1 protein, baseline expression” value ([8]; ratio to β-tubulin, FIG. 14A)?
**A.** decreases baseline expression

**Q.** What about the endothelial network formation [9] of the same molecule?
**A.** significant inhibitory effect

**Q.** And the “ICAM-1 mRNA relative expression” value [10]?
**A.** decrease

**Q.** What about the “cell proliferation of HEK cells” value [11] of the same molecule?
**A.** anti-proliferative effect

**Q.** What about the “mTOR (FRAP1) gene expression” value [12] of the same molecule?
**A.** downregulated

**Q.** What about the “mTOR-expression on both mRNA as well as protein level” value [13] of the same molecule?
**A.** significantly repressed

**Q.** And the VCAM-1 gene expression [14]?
**A.** strong downregulation

**Q.** And the “E-Selectin mRNA relative expression” value [15]?
**A.** decrease

**Q.** And the endothelial cell apoptosis [16]?
**A.** slight increase in endothelial cell apoptosis

**Q.** And the “inhibitory effect on proliferation, smooth muscle cells compared with endothelial cells” value [17]?
**A.** more pronounced in endothelial cells than in smooth muscle cells

**Q.** And the “endothelial sprouting (total sprout length)” value [18]?
**A.** significant inhibitory effect

**Q.** What about the “E-Selectin (SELE) gene expression” value [19] of the same molecule?
**A.** strong downregulation
